Data published in PMC12833424.
pKd: −log10 of the molar value.

The sequences below were run on IgG1-DS5 (human IgG1/kappa framework, scFv phage library derived) (assay: ELISA). Conditions: 2'-O-methyl; 3' azide on strand 2; ELISA: streptavidin or anti-FAM plates, PBS/0.05% Tween 20 washes, BSA or Blotto block; EMSA: PBS, 1 h, room temperature, 20 uM oligo, 25 ng/uL IgG, 5% ….

Sequence | binding signal (% of full complex ELISA slope)
UUUUUCCUGUGUCCUGAAGAAAGCAAAGACAUCUGGACAU / GUCCAGAUGUCUUUGC [D2 template:azide-haplomer-2] | 0

Same assay, conditions: 2'-O-methyl; ELISA: streptavidin or anti-FAM plates, PBS/0.05% Tween 20 washes, BSA or Blotto block; EMSA: PBS, 1 h, room temperature, 20 uM oligo, 25 ng/uL IgG, 5% …

Sequence | binding signal (% of T2 ELISA slope) | binding signal (% of full complex ELISA slope)
UUUUUCUCUCUGGCUGAAGAAA / UUUCUUCAG [T5 TempTr4:9-co] | 0 | 
UUUUUCUGAAGAA / UUUCUUCAG [T4 TempTr3:9-co] | 0 | 
UUUUUCCUGUGUCACAAUAGAG / CUCUAUUGU [T9 TempTr8:complementary 9-mer] | 0 | 
UUUUUCCUGUGUCCUGAAGAAAGCAAAGACAUCUGGACAU / UUUCUUCAGGACACAG [D3 template:oligo-1] |  | 76.1
UUUCUGAAGAAAUUUCCUGUGUC / UUUCUUCAG [T10 TempFlp:9-co] | 0 | 
UUUUUCCUGUGUCCUGAAGAAAGCAAAGACAUCUGGACAU / UUUCUUCAGGACACAG / GUCCAGAUGUCUUUGC [D5 template:oligo-1:oligo-2] |  | 45
UUUUUCCUGUGUCCUGAAGAAA / UUUCUUCAG [T3 TempTr2:9-co] |  | 100
UUUUUCCUGUGUCCUGAAGAAAGCAAAGACAUCUGGACAU / AUGUCUUUGCUUUCUUCAGG [D6 template:contig. complement-1] |  | 0.8
UUUUUCCUGUGUCCUGAAGAAAGCA / UUUCUUCAG [T2 TempTr1:9-co] |  | 100
UUUUUCCUGUGUCCUGAAGAAAGCA / UUUCUUCAGGACACAG [T1 TempTr1:oligo-1] |  | 100
UUUUUCCUGUGUCCUGAAGAAAGCAAAGACAUCUGGACAU / GUCCAGAUGUCUUUGC [D4 template:oligo-2] |  | 0
UUUUUCGUGUGUGCUGAAGAAA / UUUCUUCAG [T8 TempTr7:9-co] | 0 | 

What follows are sequences tested on IgG1-DS5 (human IgG1/kappa framework, scFv phage library derived) (assay: SPR steady state). Conditions: 2'-O-methyl; ELISA: streptavidin or anti-FAM plates, PBS/0.05% Tween 20 washes, BSA or Blotto block; EMSA: PBS, 1 h, room temperature, 20 uM oligo, 25 ng/uL IgG, 5% ….

Sequence | pKd
UUUUUCCUGUGUCCUGAAGAAAGCA / UUUCUUCAG [T2 duplex without biotin] | 6.36

Same assay, conditions: all 2'-O-methyl, 5' BCN on strand 2, 3' azide on strand 3, reacting to triazole, ELISA: streptavidin or anti-FAM plates, PBS/0.05% Tween 20 washes, BSA or Blotto block, EMSA: PBS, 1 h, room temperature, 20 uM oligo, 25 ng/uL IgG

Sequence | pKd
UUUUUCCUGUGUCCUGAAGAAAGCAAAGACAUCUGGACAU / UUUCUUCAGGACACAG / GUCCAGAUGUCUUUGC [Temp1:BCN-haplomer-1:azide-haplomer-2 complex] | 6.48
